According to paper PMC13483431, “Structure and mechanism of the HSV-1 origin-binding protein UL9” (Journal of Virology, 2025):

How the values were obtained:
[1] = target: T1, full-length HSV-1 ICP8 with an N-terminal 8xHis tag (HSV-1, UniProt P04296 1-1196); assay: pull-down; Strep-tag pull-down: 50 μg Strep-tagged UL9^CTD or full-length UL9 as bait with an equal amount of ICP8; 50 mM Tris pH 8.0, 150 mM NaCl, 1 mM DTT, 0.05% Tween-20; 1 h at 4 °C; SDS-PAGE with Coomassie; details: both partners purified
T1 construct: also called His-tagged ICP8; source: insect cells (baculovirus, as UL9^FL), purified (Ni-NTA); not shown: 8xHis, N-terminal, kept
T1 sequence: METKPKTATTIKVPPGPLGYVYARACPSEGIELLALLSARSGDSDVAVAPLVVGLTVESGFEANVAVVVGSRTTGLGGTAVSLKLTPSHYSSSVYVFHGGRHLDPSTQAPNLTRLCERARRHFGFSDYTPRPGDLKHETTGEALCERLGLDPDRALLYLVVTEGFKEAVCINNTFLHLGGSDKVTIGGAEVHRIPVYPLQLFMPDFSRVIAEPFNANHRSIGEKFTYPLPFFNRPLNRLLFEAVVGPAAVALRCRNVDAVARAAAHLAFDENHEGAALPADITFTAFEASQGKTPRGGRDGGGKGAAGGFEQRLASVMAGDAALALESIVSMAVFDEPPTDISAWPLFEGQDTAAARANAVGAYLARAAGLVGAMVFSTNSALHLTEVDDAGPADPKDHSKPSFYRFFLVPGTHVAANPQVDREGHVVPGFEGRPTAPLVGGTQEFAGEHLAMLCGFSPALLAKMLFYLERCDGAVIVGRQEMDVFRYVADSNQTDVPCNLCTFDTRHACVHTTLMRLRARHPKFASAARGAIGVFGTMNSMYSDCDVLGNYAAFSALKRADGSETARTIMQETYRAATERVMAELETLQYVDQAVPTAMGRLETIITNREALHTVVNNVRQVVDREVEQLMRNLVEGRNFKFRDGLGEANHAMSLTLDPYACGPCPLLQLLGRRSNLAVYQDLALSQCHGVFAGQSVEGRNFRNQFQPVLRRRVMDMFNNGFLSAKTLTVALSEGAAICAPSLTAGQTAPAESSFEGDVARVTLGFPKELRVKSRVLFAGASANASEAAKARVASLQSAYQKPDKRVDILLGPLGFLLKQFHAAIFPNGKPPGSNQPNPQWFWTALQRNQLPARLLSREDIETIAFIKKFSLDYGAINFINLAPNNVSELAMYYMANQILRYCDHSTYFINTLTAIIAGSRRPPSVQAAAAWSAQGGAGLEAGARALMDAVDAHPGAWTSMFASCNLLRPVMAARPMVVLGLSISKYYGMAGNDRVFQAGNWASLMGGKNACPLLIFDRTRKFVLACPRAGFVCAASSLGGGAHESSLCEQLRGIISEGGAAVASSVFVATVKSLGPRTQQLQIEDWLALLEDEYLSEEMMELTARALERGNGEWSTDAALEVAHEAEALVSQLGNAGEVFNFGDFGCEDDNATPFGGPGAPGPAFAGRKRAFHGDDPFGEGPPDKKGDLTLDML

[2] = target: T1, full-length HSV-1 ICP8 with an …; assay: pull-down; GST pull-down: 50 μg GST-tagged UL9^CTD variants or C-tail peptides on GST beads with an equal amount of ICP8; 50 mM Tris pH 8.0, 150 mM NaCl, 1 mM DTT, 0.05% Tween-20; 1 h at 4 °C; SDS-PAGE with Coomassie; details: both partners purified
UL9CTD wild type = UL9CTD wild type (HSV-1, UniProt P10193 536-851); assay: MST; MST: 50 mM Tris pH 8.0, 150 mM NaCl, 1 mM DTT, 0.05% Tween-20, 40 nM FAM-dsDNA, 25 C; EMSA: 50 mM Tris pH 8.0, 50 mM NaCl, 1 mM DTT, 40 nM FAM-dsDNA, 0.5-3.5 uM protein, 4 C; cryo-EM complex: 20 mM HEPES pH 7.0, 150 mM NaCl, 1 mM DTT; details: protein: recombinant; tags: N-terminal 8xHis; blunt

B1: Strep-tagged UL9 C-terminal domain (residues 536-851) (domain or fragment)
chain: PEASLPAQAAETEEVGLFVEKYLRSDVAPAEIVALMRNLNSLMGRTRFIYLALLEACLRVPMATRSSAIFRRIYDHYATGVIPTINVTGELELVALPPTLNVTPVWELLCLCSTMAARLHWDSAAGGSGRTFGPDDVLDLLTPHYDRYMQLVFELGHCNVTDGLLLSEEAVKRVADALSGCPPRGSVSETDHAVALFKIIWGELFGVQMAKSTQTFPGAGRVKNLTKQTIVGLLDAHHIDHSACRTHRQLYALLMAHKREFAGARFKLRVPAWGRCLRTHSSSANPNADIILEAALSELPTEAWPMMQGAVNFSTL
notes: HSV-1 UL9 C-terminal domain, residues 536-851; As the His-tagged construct, with the N-terminal 8xHis tag replaced by a Strep-tag; also called UL9^CTD; Strep-tagged UL9^CTD; source: E. coli BL21 (DE3), purified (Strep-Tactin XT, Superdex 75); not shown: Strep-tag, N-terminal, kept
Question: Does B1 bind [1]?
Answer: Result: binds

B2: GST-tagged UL9 C-terminal domain (residues 536-851) (domain or fragment)
chain: PEASLPAQAAETEEVGLFVEKYLRSDVAPAEIVALMRNLNSLMGRTRFIYLALLEACLRVPMATRSSAIFRRIYDHYATGVIPTINVTGELELVALPPTLNVTPVWELLCLCSTMAARLHWDSAAGGSGRTFGPDDVLDLLTPHYDRYMQLVFELGHCNVTDGLLLSEEAVKRVADALSGCPPRGSVSETDHAVALFKIIWGELFGVQMAKSTQTFPGAGRVKNLTKQTIVGLLDAHHIDHSACRTHRQLYALLMAHKREFAGARFKLRVPAWGRCLRTHSSSANPNADIILEAALSELPTEAWPMMQGAVNFSTL
notes: HSV-1 UL9 C-terminal domain, residues 536-851; Cloned into pGEX-6P-1; also called UL9^CTD; source: E. coli BL21 (DE3), purified (Glutathione-Sepharose 4B); not shown: GST, N-terminal, kept
Question: Does B2 bind [2]?
Answer: Result: binds

B3: 15-bp oriS Box I dsDNA (dsDNA)
DNA 1: GCGTTCGCACTTCGT
DNA 2: ACGAAGTGCGAACGC
Question: With B3 as the binder, how does the Kd (UL9CTD wild type) read?
Answer: Its Kd is 2230 ± 420 nM.
